The values that follow come from paper doi:10.1101/2020.02.28.970509.

Among the targets are A3H Hap VII (human, UniProt Q6NTF7 1-200, G105R); A3H Hap II (human, UniProt Q6NTF7 1-181, G105R;K121D;E178D); A3H Hap I K117E/K121E (human, UniProt Q6NTF7 1-200, K117E;K121E); A3H Hap I K117E (human, UniProt Q6NTF7 1-200, K117E).
What all share (assay): fluorescence anisotropy

Sequence of A3H Hap II (Q6NTF7 1-181 G105R/K121D/E178D): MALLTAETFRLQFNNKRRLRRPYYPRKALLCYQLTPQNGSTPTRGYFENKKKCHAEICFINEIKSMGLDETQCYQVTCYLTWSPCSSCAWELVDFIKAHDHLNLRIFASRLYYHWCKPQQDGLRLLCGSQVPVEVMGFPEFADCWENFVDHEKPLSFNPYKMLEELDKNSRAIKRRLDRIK
Sequence of A3H Hap I K117E (Q6NTF7 whole entry K117E): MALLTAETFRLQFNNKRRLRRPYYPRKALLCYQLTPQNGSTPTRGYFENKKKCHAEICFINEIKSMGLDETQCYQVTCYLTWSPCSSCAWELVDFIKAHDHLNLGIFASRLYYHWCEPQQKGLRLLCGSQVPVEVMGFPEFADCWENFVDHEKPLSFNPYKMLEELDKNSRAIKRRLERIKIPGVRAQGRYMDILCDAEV
Sequence of A3H Hap I K117E/K121E (Q6NTF7 whole entry K117E/K121E): as the sequence (Q6NTF7 whole entry K117E) above, with K121E counted along it
Sequence of A3H Hap VII (Q6NTF7 whole entry G105R): as the sequence (Q6NTF7 whole entry K117E) above, with G105R, E117K counted along it

B1: 118 nt ssDNA (ssDNA)
DNA: GAATATAGTTTTTAGCTCAAAGTAAGTGAAGATAATTTAGAGAGTTGTAATGTGATATATGTGTATGAAAGATATAAGACTCAAAGTGAAAAGTTGTTAATGTGTGTAGATATGTTAA
modifications: internal fluorescein-dT at position 37 (between S1 and S2)
In the case of B1, the Kd is 522 ± 4 nM in the data set with A3H Hap VII, 492 ± 28 nM with A3H Hap II, 1240 ± 88 nM with A3H Hap I K117E/K121E and 3000 ± 1770 nM with A3H Hap I K117E.

By Kd is commonly meant the concentration at which binding is half-saturated. Lower therefore signals higher affinity.
